Numbering of substitutions follows the chain as printed.
Tests used:
mSNAPc#2 SNAP190-R445A = target: T1, mSNAPc#2 SNAP190-R445A (Homo sapiens, UniProt Q5SXM2;Q92966;Q16533;O75971 1-505;1-411;1-268;1-98, R445A); experiment: SPR; EMSA: 100 mM KCl, 25 mM HEPES-K pH 7.6, 12.5 mM MgCl2, 10 uM ZnCl2, 0.1 mM EDTA, 10% glycerol, 3 mM DTT, 0.5 mM PMSF, 50 nM DNA, RT 30 min; SPR: 100 mM KCl, 12.5 mM MgCl2, 10 uM ZnCl2, 0.1 mM EDTA, 0.05% P20, 25 C; conditions: protein: recombinant; tags: as P1; copies: 1;1;1;1
T1 sequence 1: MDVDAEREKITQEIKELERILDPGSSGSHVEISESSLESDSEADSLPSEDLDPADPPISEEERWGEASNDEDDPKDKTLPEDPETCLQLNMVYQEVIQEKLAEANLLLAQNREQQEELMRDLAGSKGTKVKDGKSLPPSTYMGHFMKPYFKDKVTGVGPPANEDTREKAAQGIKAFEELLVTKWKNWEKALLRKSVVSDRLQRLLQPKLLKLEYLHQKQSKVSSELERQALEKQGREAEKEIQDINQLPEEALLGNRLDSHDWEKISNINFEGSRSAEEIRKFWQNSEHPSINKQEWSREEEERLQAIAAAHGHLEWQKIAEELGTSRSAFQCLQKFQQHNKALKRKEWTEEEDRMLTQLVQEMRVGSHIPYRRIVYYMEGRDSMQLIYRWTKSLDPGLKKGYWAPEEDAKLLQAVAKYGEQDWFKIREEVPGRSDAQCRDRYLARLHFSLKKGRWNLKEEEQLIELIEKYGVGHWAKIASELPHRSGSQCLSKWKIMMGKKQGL
T1 sequence 2: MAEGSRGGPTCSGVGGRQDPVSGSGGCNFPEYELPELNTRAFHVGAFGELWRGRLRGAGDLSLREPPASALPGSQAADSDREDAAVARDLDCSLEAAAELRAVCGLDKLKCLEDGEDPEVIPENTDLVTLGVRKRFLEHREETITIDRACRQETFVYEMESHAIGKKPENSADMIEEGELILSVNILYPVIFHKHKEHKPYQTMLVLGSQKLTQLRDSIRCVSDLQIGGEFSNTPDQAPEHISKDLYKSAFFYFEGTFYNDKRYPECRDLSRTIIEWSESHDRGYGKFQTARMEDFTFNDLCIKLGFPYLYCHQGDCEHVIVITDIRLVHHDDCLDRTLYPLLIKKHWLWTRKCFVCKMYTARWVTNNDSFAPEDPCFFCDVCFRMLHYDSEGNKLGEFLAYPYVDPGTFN
T1 sequence 3: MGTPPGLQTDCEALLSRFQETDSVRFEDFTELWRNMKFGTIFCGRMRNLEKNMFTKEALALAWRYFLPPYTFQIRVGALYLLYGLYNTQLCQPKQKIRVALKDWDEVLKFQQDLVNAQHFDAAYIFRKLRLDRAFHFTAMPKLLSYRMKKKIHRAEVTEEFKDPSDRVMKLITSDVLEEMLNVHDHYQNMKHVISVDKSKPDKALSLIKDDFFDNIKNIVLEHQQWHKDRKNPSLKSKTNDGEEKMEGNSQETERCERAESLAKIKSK
T1 sequence 4: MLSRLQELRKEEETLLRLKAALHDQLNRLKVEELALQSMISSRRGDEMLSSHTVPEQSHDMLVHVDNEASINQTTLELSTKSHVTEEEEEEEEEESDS

mSNAPc#2 2Mu = target: T2, mSNAPc#2 2Mu (Homo sapiens, UniProt Q5SXM2;Q92966;Q16533;O75971 1-505;1-411;1-268;1-98, Y389A;R151A); experiment: as above; conditions: protein: recombinant; tags: as P1; copies: 1;1;1;1
T2 sequence 1: T1 sequence 1 with Y389A, A445R
T2 sequence 2: T1 sequence 2 with R151A
T2 sequence 3: T1 sequence 3
T2 sequence 4: T1 sequence 4

B1: 25 bp hU6-1 PSE (SPR) (dsDNA)
DNA 1: TGCTTACCGTAACTTGAAAGTATTT
DNA 2: AAATACTTTCAAGTTACGGTAAGCA
- Kd (mSNAPc#2 SNAP190-R445A): 603 nM
- Kd (mSNAPc#2 2Mu): 1620 nM

Source: article PMC9652321, “Structural basis of human SNAPc recognizing proximal sequence element of snRNA promoter”
